Substitutions are numbered along the chain they refer to.

In one assay the target is T1, human CD3 on T cells (human, UniProt P07766 23-207).
T1 construct: whole, on cells; The target is the native CD3 complex on cells; The recombinant antigen used elsewhere is the εγ heterodimer; also called CD3 on Jurkat cells; CD3 on human peripheral blood CD4+ and CD8+ T cells
In words: flow cytometry, human peripheral blood CD8+ T cells. How it is done: Fresh human peripheral blood was taken and PBMCs were isolated by Ficoll-Paque Plus (GE, 17-1440-03). The PBMCs were adjusted to 5×10⁵ cells/mL with 4% calf serum (Hyclone, SH30626.06), and added to a 96-well U-plate at 100 μL/well. The centrifuged supernatant was discarded. 100 μL of gradient diluted antibody (initial concentration: 1800 nM, 3-fold dilution, 11 gradients) was added to each well and incubated at 4° C. for 60 minutes. The secondary antibody Alexa Fluro647 labeled goat anti-human IgG Fc (1:300 dilution) was added at 50 μL/well and incubated on an ice bath for 20 min. After washing once, PI solution was added at 50 μL/well. Incubation was performed for 5 min before detection by flow cytometry (BD Celesta). The GPC3×CD3κλ bispecific antibody can bind to the human peripheral blood T cell with low affinity.
A general note: A flow cytometer gives signals particle by particle.

Assay [1] deals with T2, human CD3εγ-Fc heterodimer (human).
T2 construct: also called human CD3 εγ protein; recombinant CD3 εγ protein
T2 chain 1: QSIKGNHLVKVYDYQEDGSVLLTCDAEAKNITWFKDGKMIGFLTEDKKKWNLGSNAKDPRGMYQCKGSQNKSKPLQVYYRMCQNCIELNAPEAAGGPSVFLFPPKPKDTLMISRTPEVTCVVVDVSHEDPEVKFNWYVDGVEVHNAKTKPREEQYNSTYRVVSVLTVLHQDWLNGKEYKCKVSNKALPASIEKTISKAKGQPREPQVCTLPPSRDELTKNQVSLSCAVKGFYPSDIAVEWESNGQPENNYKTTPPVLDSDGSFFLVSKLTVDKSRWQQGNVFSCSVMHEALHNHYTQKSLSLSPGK
T2 chain 2: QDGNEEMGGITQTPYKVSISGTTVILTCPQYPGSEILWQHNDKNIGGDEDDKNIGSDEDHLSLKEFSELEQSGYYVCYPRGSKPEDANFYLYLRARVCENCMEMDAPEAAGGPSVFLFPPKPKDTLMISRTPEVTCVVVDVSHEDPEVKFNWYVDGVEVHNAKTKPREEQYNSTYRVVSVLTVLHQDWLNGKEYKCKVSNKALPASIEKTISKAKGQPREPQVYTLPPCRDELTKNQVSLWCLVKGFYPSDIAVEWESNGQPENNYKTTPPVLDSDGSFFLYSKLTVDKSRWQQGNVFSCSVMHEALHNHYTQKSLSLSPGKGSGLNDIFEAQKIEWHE
In words: SPR (Biacore T200), CD3εγ amine-coupled to the chip, antibody as analyte. The procedure: Human or monkey CD3 εγ recombinant antigen at 10 μg/mL was bound to a CMS chip (GE healthcare) by amino coupling, and the antigen binding capacity was controlled to approximately 200 RU. After the baseline was stable, gradient diluted antibodies (initially with 10 μg/mL, 2-fold dilution, 7 gradients) were flowed through the chip at a flow rate of 30 μL/min, with an association time of 350 seconds and a dissociation time of 600 seconds. The kinetic constants were obtained by fitting with 1:1 binding model using Biacore T200 evaluation software.

The target in assay [2] is recombinant cynomolgus monkey GPC3 full-length protein (cynomolgus monkey, UniProt A0A2K5VK50 24-558). Description: SPR (Biacore T200), antibody on Protein A chip, GPC3 as analyte. How it is done: (§1) The antibodies with a concentration of 1 μg/ml were captured on the Protein A chip (GE healthcare). Different concentrations of recombinant human or cynomolgus monkey GPC3 protein (5 μg/ml as the initial concentration, 2-fold gradient, a total of 6 concentration points) as the analyte was flowed through the chip at a flow rate of 30 μL/min, with an association time of 120 seconds, and a dissociation time of 400 seconds. The changes in the SPR signal during the association and dissociation of the protein were recorded. The kinetic constants were obtained by fitting with 1:1 binding model using Biacore T200 evaluation software.
A general note: In SPR one partner is held on a chip, and binding of the other changes the refractive index at the surface.

Assay [3] addresses T3, recombinant human GPC3 protein (human, UniProt P51654 25-563).
T3 construct: also called human GPC3 full-length protein; recombinant GPC3 protein
Described as above. The procedure: as §1

For a further assay, the target named is T4, human GPC3 on cells (human, UniProt P51654 25-563).
T4 construct: whole, on cells; One molecule is used for both CHO-hGPC3 transfectants and GPC3+ HepG2 cells; The assay field names the cell; also called CHO-hGPC3 (clone 2B10); CHO-human GPC3
Description: flow cytometry, HepG2 cells. How it is done:
HepG2 cells in the logarithmic growth phase were taken, added with 200 μg/mL of murine IgG (Jackson ImmunoResearch, 115-005-03), and blocked on an ice bath for 30 min. The cells were adjusted to 5×10⁵ cells/mL with 4% calf serum and added to a 96-well U-shaped plate at 100 μl/well. The centrifugation was performed at 300 g for 5 min. The supernatant was discarded. 100 μL of gradient diluted antibody (initial concentration: 1800 nM, 3-fold dilution, 10 gradients) was added to each well, and incubated at 4° C. for 60 min. The primary antibody was washed, added with Alexa Fluro647 labeled goat anti-human IgG Fc (1:300 dilution) 50 μL/well, and incubated on ice for 20 min. After washing once, PI solution was added at 50 μL/well. Incubation was performed for 5 min before detection by flow cytometry. The GPC3×CD3κλ bispecific antibody can bind to GPC3+ tumor cell HepG2 with high affinity.

B1: GPC3×CD3 κλ002 (bispecific antibody, human IgG4 S228P, kappa, lambda)
light 1: DVVMTQSPLSLPVTPGEPASISCRSSQSIVHSNGNTYLEWYLKKPGQSPQLLIYKVSNRFSGVPDRFSGSGSGTDFTLKISRVEAEDVGVYFCLQVTHVPLTFGQGTKLEIKRTVAAPSVFIFPPSDEQLKSGTASVVCLLNNFYPREAKVQWKVDNALQSGNSQESVTEQDSKDSTYSLSSTLTLSKADYEKHKVYACEVTHQGLSSPVTKSFNRGEC
heavy 1: QVQLVQSGAEVKKPGSSVKVSCKASGYTFADYEIHWVREAPGQGLEWMGAIHPGSGGTAYAQKFQGRVTLTADESSTTAYMELSSLRSEDTAVYYCTRYYSFAYWGQGTLVTVSSASTKGPSVFPLAPCSRSTSESTAALGCLVKDYFPEPVTVSWNSGALTSGVHTFPAVLQSSGLYSLSSVVTVPSSSLGTKTYTCNVDHKPSNTKVDKRVESKYGPPCPPCPAPEFEGGPSVFLFPPKPKDTLMISRTPEVTCVVVDVSQEDPEVQFNWYVDGVEVHNAKTKPREEQFNSTYRVVSVLTVLHQDWLNGKEYKCKVSNKGLASSIEKTISKAKGQPREPQVCTLPPSQEEMTKNQVSLSCAVKGFYPSDIAVEWESNGQPENNYKTTPPVLDSDGSFFLVSKLTVDKSRWQEGNVFSCSVMHEALHNHYTQKSLSLSLGK
light 2: QAVVTQEPSLTVSPGGTVTLTCRSSTGAVTTSNYANWVQEKPGQAPRGLIGGTNKRAPWTPARFSGSLLGGKAALTITGAQAEDEAEYYCVLWYSNLWVFGGGTKLTVLGQPKAAPSVTLFPPSSEELQANKATLVCLISDFYPGAVTVAWKADSSPVKAGVETTTPSKQSNNKYAASSYLSLTPEQWKSHRSYSCQVTHEGSTVEKTVAPTECS
heavy 2: EVQLVESGGGLVQPGGSLRLSCAASGFTFNTYAMNWVRKAPGKGLEWVGRIRSKYNNYATYYADSVKDRFTISRDDSKNSLYLQMNSLKTEDTAVYYCVRHGNFGNSYVSWFAYWGQGTLVTVSSASTKGPSVFPLAPCSRSTSESTAALGCLVKDYFPEPVTVSWNSGALTSGVHTFPAVLQSSGLYSLSSVVTVPSSSLGTKTYTCNVDHKPSNTKVDKRVESKYGPPCPPCPAPEFEGGPSVFLFPPKPKDTLMISRTPEVTCVVVDVSQEDPEVQFNWYVDGVEVHNAKTKPREEQFNSTYRVVSVLTVLHQDWLNGKEYKCKVSNKGLASSIEKTISKAKGQPREPQVYTLPPCQEEMTKNQVSLWCLVKGFYPSDIAVEWESNGQPENNYKTTPPVLDSDGSFFLYSKLTVDKSRWQEGNVFSCSVMHEALHNHYTQKSLSLSLGK
notes: also called GPC3 x CD3 κλ002; GPC3×CD3κλ bispecific antibody
B1: the figures for the concentration for a half-maximal effect (EC50) with human CD3 on T cells and with human GPC3 on cells were 65 nM and 2.1 nM, respectively. Besides, the Kd was 15.9 nM in assay [1], 1.6 nM in assay [2] and 1.35 nM in assay [3].

B2: GPC3×CD3 κλ003 (bispecific antibody, human IgG4 S228P, kappa, lambda)
light 1: B1 light 1 with E128K, Q129K
heavy 1: B1 heavy 1 with K145E, K211E
light 2: B1 light 2
heavy 2: B1 heavy 2
notes: also called GPC3 x CD3 κλ003; GPC3×CD3κλ bispecific antibody
B2: the EC50 was determined as 69 nM with human CD3 on T cells and 2.5 nM with human GPC3 on cells. Also, the Kd in assay [1] is 12.1 nM; in assay [2], 1.91 nM; in assay [3] it was 2.11 nM.

By EC50 is commonly meant the midpoint of the concentration-response curve. The term Kd denotes the free concentration of one partner at which half of the binding sites on the other are occupied at equilibrium, for simple one-to-one binding.

For the origin of these results see patent US20240043568A1 (KEYMED BIOSCIENCES, published 2024).
